These results are taken from a protein production outcome set (Wang et al. 2014).
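Also: failed if final PepcDB status was selected cloned or expressed and not failed if soluble or beyond.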

The data set can be described thus: label from the status in PepcDB records.
As for “MVSLVMSGLTFWAVNTIQQDAQVNDTRFGRDLGLLLAANVAPLVADHNLTEVAQFSQRFYSSTSSVRYMLYADETGKIFFGIPFWEPEVENSLSIERRIQLPEEYPGDGEKPMVRQHMSPDGIVTDVFIPLIVDKKYLGVLAIGINPNQTAVISTNFTRDVTIAVFITIWVMVILAGVVNALTITKPIKELLVGVKQIAAGNFKQRIDLPLGGELGELILNFNEMAERLERYEEQNIEELTAEKAKLETLVSTIADGAVLIDNNMQVILVNPTARHIFGWEGADDVVGSNVLHHLPPAVQMEITRPLYEMAAGECDSAEFRLTLNQPSNRTIRILLTTVLNLQRESIKGIAITVQDITREVELNEAKSQFISNVSHELRTPLFNIKSFIETLHDYGEDLSLEERQEFLQTVNHETDRLTRLVNDVLDLSKLESGRSYSFDGVDLAQAIEQTLRTYQLNARDKGIELIQDVAPGLPLVLGNYDLLLQVLANLVGNALKFTSSGGKIAIRTYVLNTKSNSPNQPAQVRIEVSDTGIGIAQEDQQAIFDRFFRVENRVHTLEGTGLGLSIVRNIVERHRSRVNLVSEVGVGTTFWFDLILFEDEAPKKMVESGEEKAAMPTS”, the protein production entry is “failed”. Consider “MTERFDCHHCNESLFGKKYILREESPYCVVCFETLFANTCEECGKPIGCDCKDLSYKDRHWHEACFHCSQCRNSLVDKPFAAKEDQLLCTDCYSNEYSSKCQECKKTIMPGTRKMEYKGSSWHETCFICHRCQQPIGTKSFIPKDNQNFCVPCYEKQHAMQCVQCKKPITTGGVTYREQPWHKECFVCTACRKQLSGQRFTARDDFAYCLNCFCDLYAKKCAGCTNPISGLGGTKYISFEERQWHNDCFNCKKCSLSLVGRGFLTERDDILCPDCGKDI”, for which the protein production result is “failed”. Take “MGTYRKRFNEKARSGHMAKLKELKRIRNKQFTRQDENDERVENPDSAPAESSTTEPNANAEILEPLTEEEKKMKKRKLQELFTPKESKVSRLKKKRLDKFIEHQLKREERKTIIGKLQDYKIDTSLLTSSKRLGEGRQTKKEEFKEALSLERQGRGNEQTNEILYEEYEPKVWDEYGEGGSSEDDDGEDDFEASFGSMPKPTDNEEKKSSGFIDHRPAKFGGSGLSFGFSNIKVINKESKTPKKKYNWRQRVEMEELKKHGKEDEMDFDTTSEDDDEEEDQEEEDKMHPSENPLEEVESADSETGSEKFDQNDVANEFKDWANQEIKKLEGRDQELVTPTLNIDYKPIIRKEDLDDGLQEAYVPINENSTRKAFYVEVSRSDEIQKARIQLPVFGEEHKIMEAIHHNDVVIICGETGSGKTTQVPQFLYEAGFGAEDSPDYPGMVGITQPRRVAAVSMAERVANELGDHGHKVGYQIRFDSTAKEDTKVKFMTDGVLLREMMHDFKLTKYSSIIIDEAHERNINTDILIGMLSRCVRLRAKLHKENPIEHKKLKLIIMSATLRVSDFSENKTLFPIAPPVLQVDARQFPVSIHFNRRTAFNYTDEAFRKTCKIHQKLPPGAILVFLTGQQEITHMVKRLRKEFPFKKNSKYNKDLETPVSKMGINSKTTDLEAEDIDFSVQVIDQDKFKSAIRYEEDEGNSGNGEDEEDEEEEGFEEVLTEGQTANDPLYVLPLYSLLPTKEQMRVFQKPPQGSRLCIVATNVAETSLTIPGVRYVVDSGRSKERKYNESNGVQSFEVGWVSKASANQRSGRAGRTGPGHCYRLYSSAVFEHDFEQFSKPEILRMPVESIVLQMKSMAIHNIINFPFPTPPDRVALSKAIQLLQYLGALDNKEMITEDGKKMSLFPLSPRFSKMLLVSDEKACLPYIVAIVSALSVGDPFINEFELGINEISRKPNPDENLDDKIREHDESTPGMDPELKKELRSKFYKSRSQFSKLDKFSDVFRLLSVVSAMDYVPKEQKEIFMKKNFLRGKLMEEIVKLRKQLMYIIKSNTSKENIAVVIRNEDLKSDIPSVIQIKLLKQMICAGFVDHVAVRADVLFPDDAKITNRTSIINIPYIPVLATRTPNIEDCFVYIHPTSILNNLGEMPPKYMLYYSLHLGGNNKTRMNTLCDIASTPLANIARKGLLLTYSKPLTGQGLKTVNLSPTERYCYVVPRFGSTVDNDLKIGWDLNPIAVHQKKQKGQWTVIKFITRKGFQTITGEEKEKK”: the protein production entry was “failed”. Consider “MDPEEEAFDAIRRFARAENINAASVTAIGAFATATLAFFDLKTQDYQEIPVAEQSEVLTLLGDITLDENGVPNPHLHVVLGFADGSTRGGHFLKGLVRPTLEVVIRETPAELRRSYNREFGIALIDPAKLEHHHHHH”, for which the protein production result is “not failed”. In the case of “MAKNDRKEPYPVINILECKACGRCLLACPKDVLFMSENLNARGYHYIEYKGEGCSGCASCYYTCPEPLALEIHIPLKKEEAE” it was “failed”. In the case of “MENLKNIQPREDFNWEEFEAGGVHAAVSRQEQEAAYDKTLNTIKEKEVVMGRVTAINKREVVINVGYKSEGVVPATEFRYNPELKVGDEVEVYIENQEDKKGQLVLSHRKARAARSWERVNEALEKDEIVKGYVKCRTKGGMIVDVFGIEAFLPGSQIDVRPIRDYDAFVEKTMEFKIVKINQEYKNVVVSHKVLIEAELEQQKKEIIGKLEKGQVLEGIVKNITSYGVFIDLGGVDGLIHITDLSWGRVAHPEEIVQLDQKINVVILDFDEDRKRIALGLKQLMPHPWDALDSELKVGDKVKGKVVVMADYGAFVEIAQGVEGLIHVSEMSWTQHLRSAQDFLHVGDEVEAVILTLDREERKMSLGLKQLKPDPWADIETRFPVGSRHHARVRNFTNFGVFVEIEEGVDGLIHISDLSWTKKIKHPSEFTEVGADIEVQVIEIDKENRRLSLGHKQLEENPWDVFETVFTVGSIHEGTVIEVMDKGAVVSLPYGVEGFATPKHMVKEDGSQAVLEEKLPFKVIEFNKDAKRIIVSHSRVFEDEQKMAQREANAERKAEAKAAQKEAAAEAANPAQAVEKATLGDLGELAALKEKLSEN” it was “failed”; in that of “MKAVIVYASVHHGNTKKIAEAMASVISADVIDVTRKIKPDLSGYDVIGFASGVYFHTFHERIKKCIEENLFSKGQKVFLVATCGLGYRDYTKGIKDILAKKHVSFIGNFQCRGWDTYGIFGKIGGIAKKHPNDRDLKEAQQFVLKTVCEKTIDDVALLG”, “failed”. Turning to “MSKDAQQISALRRFSVSIISVALLVISGTVGYMYLENMSLLDALYMTVITVATVGFSEVRPLDDVGKIFTMVLIVGGTGIFFFTLTSVAVFFVSGEWKEHWEQQRNERMLRKLNDHFIICGYGRLGGSVAEELRAKAVPFVVIDNMIDNVLRARDEGFLAIKGNAADEEVLADAGLHRAKGLIAAAGNDAENVFIVLTARNLKPNLYIVARADCDGSESKLRRAGAEKVVMLYRSAGKRMASLLTEPELEEYLDELSNANNLNLRIAQYLVGDNSPLVGKSFQEVDLYNNHRINVVGYKLPDGELHTTPRPAEIIQKNGTIIVIGKSDDLEMLCKLAQGETQR”, the protein production entry is listed as “failed”.

Regarding “MESVYLFSSGTLKRKANTICLETESGRKYIPVENVMDIKVFGEVDLNKRFLEFLSQKRIPIHFFNREGYYVGTFYPREYLNSGFLILKQAEHYINQEKRMLIAREIVSRSFQNMVDFLKKRKVRADSLTRYKKKAEEASNVSELMGIEGNAREEYYSMIDSLVSDERFRIEKRTRRPPKNFANTLISFGNSLLYTTVLSLIYQTHLDPRIGYLHETNFRRFSLNLDIAELFKPAVVDRLFLNLVNTRQINEKHFDEISEGLMLNDEGKSLFVKNYEQALRETVFHKKLNRYVSMRSLIKMELHKLEKHLIGEQVFGSEE”, the protein production result was “not failed”. The result for “MNLRLAAALCAALSLCAVLAVPANFPALGGDARLTLAVFALATCAWIGTPIDDTYIALGAGLALTATGVISSDTLFGTLGEDTVWLLICAFVLAAAVARTGLAGRAAAFLVGGARTVRQLVHLTTAALVVTAFAMPATSGRAALALPVFLALAKVLADRKRLVVMLALLFPTVILLSAVATLIGAGAHLITVSVLWEATGDRIGFTQWLLLGLPLAVASSHLAAETVLLTTTRRADRAGPVRITAEEIQRHSESPVTGPWTQAEKRCALLLATVVALWCSEPLHRVSPAVVALIGAVVASSPALGTVRLKDALKTVPWSLLLFMAATMAMGVALADSGAAGWLVSGLPADVAPAVFLGVVVAVSTAAHLVLQSRSARSSVLVPLVIAAAVGAGVNPVAAALASTAAAGFCHTLPASAKPVTLFSDVPGVPTYTPRDLLRLSAVLAPLTALLVLFFAAAVWPLLGVPVTR” reads “failed”; that for “MKLELGNIFIKNVEFGEKTEVKDGVLYISSEEIEKIVLEDERIVSVNVELARPGESIRIAPVKDVIEPRVKIGDESKIFPGIINKVKTVGSGRTHVLLGACVVTCGNIVGFQEGVIDMSGPTAKYTPFSKTNNICIVIKAKDGIDTHDYEEAARIAGLKIGAYVGEAGREVEPDEVIVYETKPLLKQVKEYPDLPTVAYVHMLQSQGLLHDTYYYGVDAKQIVPTFMYPTEIMDGAIISGNCVAPCDKVTTFHHLNNPVIHDLYKRHGKDLNFIGVILTNENVFLVDKERSSDMVAKLIEFLGVDGVLVTEEGYGNPDTDLMMNCRKCSEVGANVVLITDEFPGKDGKSQSIADATKEADAVVSCGQGNLVVHFPAMEKIIGTLDYVEMMIGGYKGCLNEDGSMDAELQIIIASTIANGYNHLTARYY”, “failed”; that for “MSAGLTGIRVAVIGGDDREIYMIPELQKLGAYIVGVGFEKAAPIQGVTLLSSPLEAVEKADVLLFPMYGTDERGDVKAKYSETPIVLNKELLKAVSPKVPLFIGWARPALKSAAEMLGIQIVETANLDQLAILNSIPSAEGAIQMAMEASPITIHGSESFVLGLGRCGWTLARTLKGMGAHVTGVARKPADLARALEMGLEAVHFADLDEKIGKAELIFNTVPHLILDKVMLEQVNHEAVIIDIASLPGGTDFEYAKAKGIKAMLAPGLPGKVAPKAAGKILAQVYPQLILRHLTTKNASLKF”, “failed”. “MNNRELYGNIRDVYHLLQKNLDKAIEQYDISYVQFGVIQVLAKSGKVSMSKLIENMGCVPSNMTTMIQRMKRDGYVMTEKNPNDQRETLVYLTKKGEETKKQVDVQYSDFLKENCGCFTKEEEGILEDLLLKWKKHLN”: the protein production entry is listed as “not failed”.

In the case of “SQIYASDGETELARIVPPEGNRQMVTIDQVPDTVKNAVVAAEDREFYTNPGFSITGYARAALGVITGDSSAGGGSTITQQYVKKAVVGDERSLIRKAKELVYSAKMANEWSKDEVLEAYLNTVYFGRNAYGVQAAAHAFFDKPVEELTAAEGAVLAASIQLPSQLDPWTNP”, the protein production entry is on record as “failed”. As for “MSSNNINSIISKIQQKNTATVITVGNYKGGAGKTTNVVLLAYKLAKKGLKVCVLDLDPQSNATKSLLLTKSSLYQDEVVTIEKTLMTGISEKNLDGLEVKIMDNLYLLPSYIDFEDFPKYLYKNTSNQREEDYYLKNIFTPLQGKYDIVLIDVPPMSKAVTRNAVICSDYVLISLQTHERSLSGAESYVEELNKLHNEYDLDLEVVGVLPVIHKNNGSVDQYVMEVAKETFGEDNLFENVVPQMERIKRFDVNGITDKDRHDQKVLNLYDKVSDELLDRINYFEEEKEGAING”, the protein production result is reported as “not failed”. Regarding “LRESKRFIEQVISHSPQLLYIFEPTTGSNIYLNGQSVDILGYTPEEIKARGVKFFLDVLHPDDLYLLERNLNYWQNAADGEVLTTEWRMKHKNGSWRWLRSRDVVFARDENHFPCKVLGTTQDITDSKLAELE”, the protein production entry is on record as “failed”. The result for “MKETYYFAYGSNMNLDQMAYRCPAASVVEPVHLEGYRLTFCGRGKGSGVATILPEEGSRVEGVLWKITPECEKSLDFYEGYPHLYGKEPVLVQGKDGMKREVMAYTMNAPYKDQPAIPSDLYFMGIVEGCHQNGISSRSVTDALKRVREEVGRQKPSQKKTEVSR” reads “failed”. As to “KGDDNYYIIFTSGTTGQPKGVQISHDNLLSFTNWMIEDAAFDVPKQPQMLAQPPYSFDLSVMYWAPTLALGGTLFALPKELVADFKQLFTTIAQLPVGIWTSTPSFADMAMLSDDFCQAKMPALTHFYFDGEELTVSTARKLFERFPSAKIINAYGPTEATVALSAIEITREMVDNYT”, the protein production entry was “failed”. The result for “MDFESNGAMMEYCKSTGRTYCAFSIQQSSKLLGTVVLELFTDIAPATCANFIKYIKDGYQGTPLHRIVPNGWVQGGDIVDGSGKGDPGFVLPDETYSVKHDAPGVLGMATGGQPHTANTQFYISLSPLPFLDGKRVAFGRVLNKQSLENLLALQTLPTFQNERPVPDVVIASCHVIYNPNS” reads “failed”.
